In this assay the target is T1, wild-type p53 protein (UniProt P04637 1-393).
T1 construct: also called purified p53
Briefly: ELISA on plates coated with purified p53. An excerpt: The two IgGs are then visualized using a secondary anti-IgG antibody which is coupled to alkaline phosphatase. The biotinylated serum is visualized using extravidin which is coupled to alkaline phosphatase. The ScFvs are visualized using the anti-myc antibody 9E10 and then using an anti-IgG antibody which is coupled to alkaline phosphatase.

T1 sequence (P04637 whole entry): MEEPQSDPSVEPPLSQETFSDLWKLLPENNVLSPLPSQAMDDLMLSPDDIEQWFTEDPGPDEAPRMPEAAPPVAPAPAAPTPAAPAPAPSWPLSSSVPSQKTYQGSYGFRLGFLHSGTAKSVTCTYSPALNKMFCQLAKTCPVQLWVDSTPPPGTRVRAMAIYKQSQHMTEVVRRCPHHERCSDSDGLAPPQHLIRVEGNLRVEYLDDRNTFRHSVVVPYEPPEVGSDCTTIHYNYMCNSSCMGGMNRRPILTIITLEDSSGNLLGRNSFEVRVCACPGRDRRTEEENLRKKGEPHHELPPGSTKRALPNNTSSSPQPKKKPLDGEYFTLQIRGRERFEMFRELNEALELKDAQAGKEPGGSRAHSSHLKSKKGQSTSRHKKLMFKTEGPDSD

B1: ScFv 11D3-myc (scFv)
scFv: QVKLQESGAELVRSGASVNLSCTASGFNIKDYYMHWVKQRPEEGLEWIGYIDPESGETEYAPNFQGKATVTADTSSNTAYLHLSSLTSEDTTVYYCNAVIYYEYDGYALDYWGQGTTVTVSSGGGGSGGGGSGGGGSDIELTQSPSSLAVSAGEKVAMSCKSSQSLFNSRTRKNYLAWYQQKPGQSPKVLIYWASTRESGVPDRFTGSGSGTDFTLTISSVQAEDLAVYYCKQSYNLPTFGGGTKLEIK
notes: Produced from bacterial periplasm; also called 11D3 ScFv; D3M ScFv; not shown: myc tag fused for detection
With B1, the binding result is given as “binds”.

B2: ScFv 421-myc (scFv)
scFv: QVQLQQSGAELVRSGASVKLSCTASGFNIKDYYMHWVKQRPEQGLEWIGWIDPENGDTEYAPKFQGKATMTADTSSNTAYLQLSSLASEDTAVYYCNFYGDALDYWGQGTTVTVSSGGGGSGGGGSGGGGSDVLMTQTPLTLSVTIGQPASISCKSSQSLLDSDGKTYLNWLLQRPGQSPKRLIYLVSKLDSGVPDRFTGSGSGTDFTLKINRVEAEDLGVYYCWQGTHSPLTFGAGTKLEIK
notes: Produced from bacterial periplasm; not shown: myc tag fused for detection
For B2, the binding result is given as “binds”.

The values above are taken from patent US6852509 (dated 2005).
